Results: the nanobody polyreactivity screen of Harvey et al. (2022)

Assay: yeast display, Sf9 membrane polyspecificity reagent, FACS + sequencing; frameworks hold sequencing errors
In short: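 After 36–48 hours of galactose induction, yeast (Saccharomyces cerevisiae BJ5465) displaying a synthetic nanobody library were stained at 4 °C for 1 hour with 10% biotinylated, detergent-solubilized Sf9 membrane reagent. Streptavidin microbeads enriched the stained cells before FACS sorting into low and high (top ~1%) gates on anti-HA and streptavidin fluorescence. Each clone's polyreactivity label reflects its gate of origin.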

Sequence	polyreactivity (PSR sort gate)
QVQLVESGGGLVQAGGSLRLSCAASGFIFPLYAMGWYRQAPGKERELVAAITWRGDTTSYADSVKGSFTISRDNAKNTVYLQMNSLKPEDTAVYYCAAEFYDWWYYGGGEYWGQGTQVTVSS	high polyreactivity
QFQLLESGGGLVQAGGSLRLICAASGFICSLYAMGWYRPAPGKERELVATINRRGTSTFYADSVKGRFTISRDNAKNTVYLQMNSLKPEDTAVYYCNAYPGAAIRSTGRYDYWGQGTQVTVSS	low polyreactivity
QVQHVESGVGLVQAGGSLRLSCAASGITFLDTVLGWYRHAPAKEWELVADINSIGTSTSYADSVKGRFTISRDNAKNTVYLQMISLKPEDTADYYCAATSYARLAYYYGGQGTQVTVSS	low polyreactivity
QVQLVESGGGLVQAGGSLRLSCAASGSTFPPYAMGWYRQAPGKEREFVARISWTGGSTYYADSVKGRFTISRDNAKNTVYLQMNCLKPEDTAVYYCAAKSYWGQGTQVTVSS	high polyreactivity
QVQLVESGGGLVQAGGSLRLSCAASGSIFRYYAMGWYRQAPGKERELVAAIRVSTGSTSYADSVKGRFTISRDNAKKSVYLQMNSLIPAVTAVYYCNARSRLVIAYRQHNYWGQGTQVTVSS	high polyreactivity
QVQHVESGGGLVQAGGSLPLSGAASGLTFTRYAMGWYRQAPGKESELVAAISKNGGSTYYADSVTGRFTISRDNAKYTVYLQMNSLKPEDTAVYYCAARRSTSYPAGYDYWVQGTQVTVSS	high polyreactivity
QVQLVESGGGLVQAGGSLRFSCAASGFIFIFYAMGWYRQAPGKERELVAGISWSSSSTYYADSVKRRFSISRDNAKNTVYLQMNRLKPEDTAVYYCAKDGLSVSGEYDYWGQGTQVTVSS	low polyreactivity
QVQLVESGGGLVQAGGSLRLSCAASGSIFGYYAMGWYRQAPGKEREFVATISTSGVSTYYADSVKGRFTISRDNAKNTVYLQMNSLKPEDTAVYYCNAYLWYTGWDYDGEDYWGQGTQVTVSS	low polyreactivity
QVQLVESGGGLVQAGGSLRLSCAASGSIFSHYAMGWYRQAPGKERELVAAISRSGGSTYYADSVKGRFTISRDNAKNTVYLQMNSLKPEDTAVYYCAKEGDSGYWFDYWGQGTQVTVSS	low polyreactivity
QVQLVESGGGLVQAGGSLRLSCAASGSTFQSYAMGWYRQAPGKERELVARIRNSGGSTYYADSVKGRFTISRDNAKNTVYLQMNSLKPEDTAVYYCNARYVSRYLTYQYDYWGQGTQVTVSS	high polyreactivity
QVQLVESGAGLVQAGGSLRLSCAPSGFTFSWYVMGWYRQAPGKERELVAAITSSGGRTYYADSVKGRFTISRDNAKNTVYLQMNSLKPEDTAVYYCAARFKRGLGDSWGQGTQVTVSS	high polyreactivity
QVQLVESGGGLVQAGGSLRLSCAASGRTFVKYAMGWYRQAPGKERELVAAISWSGGSTYYADSVKGRFTISRDNAKNTVYLQMNSLKPEDTAVYYCAAPSSRGQGRNFDYWGQGTQVTVSS	high polyreactivity
QVQLVESGGGLVQAGGSLRLSCAASGLTFRAYVMGWYRQAPWKERELVAAISVSGGSTYYADSVKGRFTISRDNAKNKVYLQLNSLKPEDTAVYYFAAAYSSSKSSGNYYYWGLGTQVTVSS	high polyreactivity
QVQLVESCGGLVQAGGSLRLSCAASGITYVYYAMGWYRQAPGKERELVAGITSGTSTYYADSVKGRFTISRDNAKNTVYLQINSLKPEDTAVYYCATGYRRGSTYGYWGQGTQVTVSS	low polyreactivity
QVQLVESGGGLVQAGGSLRLSCAASGLTFSRNGMGWYRQAAGKERELVAAISTSGDSTDYADSVKGRFTISRDYAKNTVYLQMNSLKPEDTAVYYCNRDFSLVVHYNFDYWGQGTQVTVSS	low polyreactivity
QVQLVESGGGLVQAGGSLRLSCAASGRIFGSYGMGWYRQAPGKEWELVAAITPSGTSTYYADSVKGRFTISRDNAKNTVYLEMNSLKPEDTAVYNCNALFYRRYAFAFGYWRQGTQVTVSS	high polyreactivity

Sequence	polyreactivity (PSR sort gate)
QVQLVESGGGLVQAGGSLSLSCADSGSNFGDYAMGWYRQAPGKERELFAAISFSDGSTYYADSVKGRFTISRDNANNTVYLQMNSLKPEDTAVYYCAKDAYWGYRWYTYDYWGQGTQVTVSS	low polyreactivity
QVQLVESGGGLVQAGGSLRLSCAASGRTFYDYAMGWYRQAPGKERELVASITGGASTNYADSVKGRFTISRDNAKNTVYLQMNSLKPEDTAVYYCAGRLYRGNVWDILLGGDYWGQGTQVTVSS	low polyreactivity
QVQLVESGGGLVQAGGSLRLSCAASGLTFVYYAMGWYRQAPGKERELLAAISRSGGSTYYADSVKGRFTISRDNAKNTVYLQMNSLKPEDTAVYYCAAEATKWFGVVTMDYWGQGTQVTVSS	high polyreactivity
QVQLVESGGGLVQAGGSLRLSCDASGFTVVIYTMGWYRQAPGKERELVAAINWSGASTYYADSVKGRFTISRDNAKNTVYLQINSLKPEDTAVYYCNRVYVQQDFPYKIYPYNYWGQGTQVTVSS	high polyreactivity
QVQLVESGGGLVQAGGSLRLSCAASGRIFYKYAMGWYRQAPGKERELVAAISYSGGSTYYADSMKGRFTLSRDNAKNTVYLQMNSLTPEDTAVYYCATRRREAGIEYDYWGQGTQVTVSS	high polyreactivity
QVQLVESGGGLVQAGGSLRLSCAASGRTFPYYVMGWNRQAPRKERELVATISSSGRTYYADSVKGRFTISRDNAKNTVYLQMNSLNPEDTSVYYCAARFRWNQNYHFYYWGQGTQVTVSS	high polyreactivity
QGQLVESGGGLVQAGGSLRLSCAASGSIFYINAMGWYRQAPGKERELVASISGGGGSTYYADSVKGRFTLSRDNAKNTVYLQMNSLKPEDTAVYYCNTVSRKDYDYWGQGTQVTVSS	high polyreactivity
QVQLVESGGGLVQAGGSLRLSCAASGFTFDRYAMGWYRQAPGKERELVAAISRSGASTYYADSVKGRFTISRDNAKNTVYLQMNSLKPDDTAVYYCAAKQRTKGDYWGQGTQVTVSS	high polyreactivity
QVQLVESGGGLVQAGGSLRLSCAASGSTFYTNAKGWYRQAPGKEREFVAAISWAGSSTYADSVKGRFTISRDNAKTTVYLQMHSLKPEDTAVYYCNADVLDGGYDYWGQGTQVTVSS	low polyreactivity
QDQLVESGGGLVQAGGSLRLSCAASGSTFGNYAMGWYRQAPGKERELVAAITSGGTTNYADSVKGRFTISRDNAKNTVYLQMNSLKPEDTAVYYCNAVGTFVRYSTDGRDGVTYDYWGHGTQVTVSS	low polyreactivity
QVQLVESGGGLVQAGGSLRLSCAASGIIFWVNAMGWYRQAHGKETELVAAITISGVSTYYADSVKGRFTISRDNAKNTVYLQMNSLKPEDTAVYYCAKDPTFSSSFAVSLGFDSWGQGTQVTVSS	low polyreactivity
QVQLVESGGGLVQAGGSLRLISAASGIIFWGNAMGWYRQPPGNERELVATITGRGGSTYYADSVKGRFTISRDYAKNTVYLQMNSLKPEDTAVYYCAASGGRPILFYDVWGGIVRHEYWGQGTQVTVSS	low polyreactivity
QVQLVESGGGLVQAGGSLSLSCAASGSTFYHYAMGWYRQAPGKERELVAAISSSGGRTYYADSVKGRFTISRDNAKYTVYLQMNSLKPEDTAVYYCAARAKTSGSIEDYWGQGTQVTVSS	high polyreactivity
QVHLQESGAGLEQAGGSLRLSCAASGYISDIGTMGCYRQAPGKEREFVATIVVGSTTNYADSVKGRFTISRDNAKNTLYLQPESGRYRGVLLRGWLLAVGKFTYWGQGTQETVSS	low polyreactivity
QVQLVESGGGLVQAGGSLRLSCATSGRIFGTNAMGWYRQAPGKERELVADITSGGSTNYADSVKGRFTISRDNAKNTVYVQMNSLKPEDTAVYYCAADVIGDLRWYRDEYWGQGTQVTVSS	low polyreactivity
QVQLVESGGGLVQAGGSLRLSCAASGIIFGEYAMGWYRQAPGKERELVAAISGSGSRTYYADSVKGRFTISRDNAKNTVYLQMNSLKPEDTAVYYCAVKGGGTRYGYWGQGTQVTVSS	high polyreactivity
